Measurements: patent publication US20050180949A1 (NUVELO, published 2005)

Biological target: the molecule itself
Experiment: non-reducing vs reducing SDS-PAGE of the purified protein, Western blot with HRP-conjugated anti-V5 antibody (self-association / oligomerization)
Description: Purified recombinant full-length hC1Q/TNF7 protein expressed in HEK-293 cells was treated as follows: N=non-reduced only; N+H=non-reduced plus heating at 100° C. for 10 min; R=reduced only; and R+H=reduced plus heating at 100° C. for 10 min.
Studies of C1Q and 1C1Q-related proteins, such as adiponectin (Ad), indicate that most of the proteins form trimer, hexamer and higher molecular weight species (Shapiro and Scherer, Curr. Biol. 8:335-338 (1998) herein incorporated by reference in its entirety). To determine the oligomerization status of the hC1Q/TNF7 protein, the HEK293-expressed full-length hC1Q/TNF7 was treated under various conditions: non-reduced only (N); non-reduced plus heating at 100° C. for 10 min (N+H); reduced only (R); and reduced plus heating at 100° C. for 10 min (R+H). […] After heat treatment under non-reducing conditions, hC1Q/TNF7 migrated in 3 major bands: approximately 40, approximately 80, and approximately 160 kDa (Lane 2). In contrast, when hC1Q/TNF7 was treated under reducing conditions with or without heating, it ran as a single band at approximately 40 kDa (Lanes 3 and 4). Similar results were obtained using hC1Q/TNF7-F1 protein and an N-terminal V5His-tagged version of full-length hC1Q/TNF7 (not shown).

B1: full-length hC1Q/TNF7, carboxy-terminal V5His6-tagged, expressed in HEK-293 cells (ligand)
chain: QPRGNQLKGENYSPRYICSIPGLPGPPGPPGANGSPGPHGRIGLPGRDGRDGRKGEKGEKGTAGLRGKTGPLGLAGEKGDQGETGKKGPIGPEGEKGEVGPIGPPGPKGDRGEQGDPGLPGVCRCGSIVLKSAFSVGITTSYPEERLPIIFNKVLFNEGEHYNPATGKFICAFPGIYYFSYDITLANKHLAIGLVHNGQYRIKTFDANTGNHDVASGSTVIYLQPEDEVWLEIFFTDQNGLFSDPGWADSLFSGFLLYVDTDYLDSISEDDEL
notes: The signal peptide cleavage site is only predicted; Oligomer state as told: dimers, tetramers and higher order oligomers; also called HEK293-expressed full-length hC1Q/TNF7; human C1Q/TNF7; not shown: C-terminal V5His6 tag from the pIntron vector
**Q.** Does B1 bind?
**A.** Result: binds
